Among the data in publication PMC4192534 are EC50 and IC50 values, retold here.

The target of test [1] is FGF2-C-His (C-terminal 6xHis tagged 18 kDa human FGF2) (human) (UniProt P09038). Kind of test: AlphaScreen or HTRF; N-N orientation: FGF2-C-His bound to both Ni chelate donor and acceptor beads, increasing FGF2-C-His (0-75.5 µM).
Test [2] shares this target. Kind of test: AlphaScreen or HTRF; N-N orientation, competition: 1 µM FGF2-C-His on Ni chelate donor and acceptor beads with increasing competitor.
Test [3] has the same target. The test is described as follows: AlphaScreen or HTRF; C-N orientation, competition: 50 nM FGF2-N-GST and 50 nM FGF2-C-His with increasing competitor, added 30 min before the beads; signal as percent of control without competitor.

In test [1], “FGF2-C-His (C-terminal 6xHis tagged 18 kDa human FGF2) (from UniProt P09038-2 1-155) (natural protein)” yielded an EC50 of 6350 nM.
Substance “FGF2-N-GST (N-terminal GST tagged 18 kDa human FGF2) (from UniProt P09038-2 1-155) (natural protein)” displayed an IC50 in test [2] of 620 nM.
As for “Tag-less FGF2 (from UniProt P09038 143-288) (natural protein)”, the IC50 in test [3] was found to be 180 nM.
As to “platelet factor 4 (PF4) (natural protein)”, the IC50 in test [2] was 9560 nM; in test [3], 265 nM.
